One data set addresses LRH-1 (Homo sapiens, UniProt O00482 O00482:1-541). Put plainly: EMSA; conditions as Example 4; competed by 10x and 50x unlabeled wild type. Conditions: protein: synthetic; tags: synthesized in vitro from human LRH-1 expression plasmid; label: 32P. Background: Mobility shift assays separate free from complexed probe on a gel.
The target in another data set is PPARγ/RXRα heterodimer (Homo sapiens, UniProt P37231;P19793 P37231:1-505,P19793:1-462). Put plainly: EMSA; poly(dI-dC), 25 C 20 min then 4 C 15 min; band when both PPARγ and RXRα present; competed by 10x and 50x unlabeled wild type. Conditions: tags: TNT T7 Quick Coupled (Promega); label: 32P.
Sequence of PPARγ/RXRα heterodimer (P37231 whole entry, chain 1 of 2): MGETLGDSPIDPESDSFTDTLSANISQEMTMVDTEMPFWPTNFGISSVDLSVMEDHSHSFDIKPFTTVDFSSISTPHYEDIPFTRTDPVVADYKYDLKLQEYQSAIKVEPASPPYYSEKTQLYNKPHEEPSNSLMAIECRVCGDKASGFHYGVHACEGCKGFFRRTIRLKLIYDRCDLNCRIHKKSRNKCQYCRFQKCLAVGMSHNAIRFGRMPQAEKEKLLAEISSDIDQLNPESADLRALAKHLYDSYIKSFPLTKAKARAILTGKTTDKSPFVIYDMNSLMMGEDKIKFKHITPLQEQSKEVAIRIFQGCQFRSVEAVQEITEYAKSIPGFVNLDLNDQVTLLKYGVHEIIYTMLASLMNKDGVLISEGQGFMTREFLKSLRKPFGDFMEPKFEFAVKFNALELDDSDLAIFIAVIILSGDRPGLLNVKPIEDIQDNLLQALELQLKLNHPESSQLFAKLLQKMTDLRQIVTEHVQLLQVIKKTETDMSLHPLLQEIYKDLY
Sequence of PPARγ/RXRα heterodimer (P19793 whole entry, chain 2 of 2): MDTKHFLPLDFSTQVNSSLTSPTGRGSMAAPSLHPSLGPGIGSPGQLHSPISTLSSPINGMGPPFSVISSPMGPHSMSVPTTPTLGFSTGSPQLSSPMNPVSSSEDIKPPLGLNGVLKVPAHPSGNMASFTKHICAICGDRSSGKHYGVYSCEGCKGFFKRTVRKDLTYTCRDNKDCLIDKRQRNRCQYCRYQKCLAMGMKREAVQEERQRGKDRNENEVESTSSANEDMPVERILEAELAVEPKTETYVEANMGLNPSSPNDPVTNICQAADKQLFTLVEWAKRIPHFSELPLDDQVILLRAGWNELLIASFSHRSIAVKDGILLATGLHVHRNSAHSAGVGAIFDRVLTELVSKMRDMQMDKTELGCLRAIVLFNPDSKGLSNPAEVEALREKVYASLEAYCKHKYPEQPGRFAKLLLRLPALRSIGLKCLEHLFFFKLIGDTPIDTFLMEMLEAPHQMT

Sequence of LRH-1 (O00482 whole entry, one chain of several): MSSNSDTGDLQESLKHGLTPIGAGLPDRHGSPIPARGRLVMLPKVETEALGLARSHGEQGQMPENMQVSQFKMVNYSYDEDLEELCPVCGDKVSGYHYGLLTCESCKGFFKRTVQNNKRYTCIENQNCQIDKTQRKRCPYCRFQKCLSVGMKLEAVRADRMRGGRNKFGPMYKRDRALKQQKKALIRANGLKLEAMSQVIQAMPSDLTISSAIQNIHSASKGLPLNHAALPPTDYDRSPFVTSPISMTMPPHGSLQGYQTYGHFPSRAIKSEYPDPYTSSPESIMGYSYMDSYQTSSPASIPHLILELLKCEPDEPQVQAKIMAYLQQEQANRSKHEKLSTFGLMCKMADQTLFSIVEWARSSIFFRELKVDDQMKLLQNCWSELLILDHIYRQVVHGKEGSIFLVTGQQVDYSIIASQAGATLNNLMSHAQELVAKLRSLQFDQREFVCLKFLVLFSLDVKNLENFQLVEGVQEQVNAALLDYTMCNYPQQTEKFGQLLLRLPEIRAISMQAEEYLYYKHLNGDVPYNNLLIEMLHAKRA
Method for LRH-1: To confirm the direct binding of LRH-1 to the regulatory sequence LRH-RE found in human adiponectin promoter region, gel shift assay was executed. […] LRH-1 protein used was synthesized in vitro using human LRH-1 expression plasmid as template. […] In the competitive reaction, identical oligoDNAs to the labeled probe were used as wild-type competitors. […] 10 times or 50 times higher concentration of each unlabeled oligoDNAs was added into the reaction.
Method for PPARγ/RXRα heterodimer: For the binding reaction, human PPARγ and RXRα protein were synthesized in vitro by using TNT T7 Quick Coupled Transcription/Translation Systems (Promega corporation) according to a supplyer's protocol. […] The binding reaction was performed in 20 μl of a solution including 1 μg of poly (dI-dC), 1 μl of the in vitro synthesized nuclear receptor solution, and 200,000 cpm of the labeled probe. After mixing, it was incubated for 20 minutes at 25° C. and was left for 15 minutes at 4° C. The labeled probe binding to nuclear receptors was separated from the free probe by electrophoresis using 4% of polyacrylamide gel. The electrophoresis was executed using 0.5× TBE buffer (45 mM Tris, 45 mM boric acid, and 1 m M EDTA) for 90 minutes under a voltage of 200V. After the electrophoresis, the gel was dried and analyzed by BAS2500 system (Fuji Photo Film Co., Ltd.). To confirm that the labeled probe binds to nuclear receptors specifically, the competitive reactions were executed.

B1: adiponectin LRH-RE probe (-245 to -221) (dsDNA)
DNA 1: AATAAGGGTCAAGGCCTGGAAACAC
DNA 2: GTGTTTCCAGGCCTTGACCCTTATT
For B1, the binding result with LRH-1 is on record as “binds”.

B2: adiponectin PPRE probe (-291 to -267) (dsDNA)
DNA 1: TGGTTTTGACTTTTGCCCCATCTTC
DNA 2: GAAGATGGGGCAAAAGTCAAAACCA
On to B2, for which, in the data set with PPARγ/RXRα heterodimer, the binding result is reported as “binds”.

For the origin of these results see patent US20060084618, “Adiponectin promoter and use thereof” (published 2006).
